The values that follow come from US20220249692A1 (BIOSCEPTRE AUST, published 2022).

In the assay the target is T1, E200 epitope of P2X7R.
T1 peptide: GHNYTTNILPGLNITC
Kind of assay: ELISA, antibody-conjugated liposomes on E200 epitope. In general terms: An ELISA detects its analyte on a solid surface through an enzyme-linked reagent.

B1: single domain antibody (variable domain of SEQ ID NO: 7) conjugated to gemcitabine liposome nanoparticles (VHH)
VHH: EVQLLESGGGLVQPGGSLRLSCAASGFTFRNHDMGWVRQAPGKGLEWVSAISGSGGSTYYANSVKGRFTISRDNSKNTLYLQMNSLRAEDTAVYYCAEPKPMDTEFDYRSPGTLVTVSS
modifications: activated via Traut's reagent (thiolated) and conjugated to maleimide groups of Maleimido-Succinyl-PEG4000-Oleate on the liposome
notes: also called BIL03s; BIL03s-coated nanoparticles
Consider B1, for which the binding result is “binds”.
